Data on three substances can be found in article PMC11672978, “Assessing the Impact of the Leader Peptide in Protease Inhibition by the Microviridin Family of RiPPs” (Biomedicines, 2024).

The target in experiment [1] is elastase. As to conditions: mature natural product without leader peptide; read-out: previously reported IC50 for elastase inhibition; cited from earlier work. The source says: Although, the IC50 value we measured is certainly an overestimation of the actual IC50 as it is less than half the concentration of the elastase used in the assay.
Experiment [2] has as its target Elastase.
Experiment [3] deals with Elastase. The source holds these as a separate data set.

For microviridin B, at elastase [1], the IC50 is 25 nM. Substance “MdnA Δ2 (bicyclic microviridin B precursor peptide modified by MdnC only, leader peptide present, N-terminal His-tag)” registered an IC50 of inhibition of the hydrolysis of the fluorogenic substrate MeOSuc-AAPV-AMC by elastase (20 nM elastase, 10 nM-10,000 nM MdnA Δ2, 100 mM HEPES pH 8.0, 10% DMSO, room temperature) with Elastase [2] of 0.84 µM. Consider “MdnA Δ3 (tricyclic, fully modified microviridin B precursor peptide with the leader peptide present, N-terminal His-tag)”, for which the IC50 of inhibition of the hydrolysis of the fluorogenic substrate MeOSuc-AAPV-AMC by elastase (20 nM elastase, 0.1 nM-100 nM MdnA Δ3, 100 mM HEPES pH 8.0, 10% DMSO, room temperature) with Elastase [3] worked out at 0.0083 µM.

Usually IC50 stands for the concentration that inhibits the measured activity by half.
